Data taken from patent US20110263454A1, “Methods of Identifying Functional Characteristics of Promoters, Transcription Modifying Proteins and Transcription Modulating Agents” (Salk Institute for Biological Studies, priority 2008, published 2011).

B1: PPARd: Peroxisome proliferator activated receptor δ (NR1C2), cDNA driver (protein, UniProt Q03181 1-441, looked up)
Peroxisome …: MEQPQEEAPEVREEEEKEEVAEAEGAPELNGGPQHALPSSSYTDLSRSSSPPSLLDQLQMGCDGASCGSLNMECRVCGDKASGFHYGVHACEGCKGFFRRTIRMKLEYEKCERSCKIQKKNRNKCQYCRFQKCLALGMSHNAIRFGRMPEAEKRKLVAGLTANEGSQYNPQVADLKAFSKHIYNAYLKNFNMTKKKARSILTGKASHTAPFVIHDIETLWQAEKGLVWKQLVNGLPPYKEISVHVFYRCQCTTVETVRELTEFAKSIPSFSSLFLNDQVTLLKYGVHEAIFAMLASIVNKDGLLVANGSGFVTREFLRSLRKPFSDIIEPKFEFAVKFNALELDDSDLALFIAAIILCGDRPGLMNVPRVEAIQDTILRALEFHLQANHPDAQYLFPKLLQKMADLRQLVTEHAQMMQRIKKTETETSLHPLLQEIYKDMY
B2: RARb: Retinoic acid receptor β (NR1B2), nuclear hormone receptor cDNA driver (protein, UniProt P10826 1-455, looked up)
Retinoic acid receptor beta: MTTSGHACPVPAVNGHMTHYPATPYPLLFPPVIGGLSLPPLHGLHGHPPPSGCSTPSPATIETQSTSSEELVPSPPSPLPPPRVYKPCFVCQDKSSGYHYGVSACEGCKGFFRRSIQKNMIYTCHRDKNCVINKVTRNRCQYCRLQKCFEVGMSKESVRNDRNKKKKETSKQECTESYEMTAELDDLTEKIRKAHQETFPSLCQLGKYTTNSSADHRVRLDLGLWDKFSELATKCIIKIVEFAKRLPGFTGLTIADQITLLKAACLDILILRICTRYTPEQDTMTFSDGLTLNRTQMHNAGFGPLTDLVFTFANQLLPLEMDDTETGLLSAICLICGDRQDLEEPTKVDKLQEPLLEALKIYIRKRRPSKPHMFPKILMKITDLRSISAKGAERVITLKMEIPGSMPPLIQEMLENSEGHEPLTPSSSGNTAEHSPSISPSSVENSGVSQSPLVQ
B3: RVRb: Rev-Erb β (NR1D2, alternative name RVR), cDNA driver (protein, UniProt Q14995 1-579, looked up)
Nuclear receptor subfamily 1 …: MEVNAGGVIAYISSSSSASSPASCHSEGSENSFQSSSSSVPSSPNSSNSDTNGNPKNGDLANIEGILKNDRIDCSMKTSKSSAPGMTKSHSGVTKFSGMVLLCKVCGDVASGFHYGVHACEGCKGFFRRSIQQNIQYKKCLKNENCSIMRMNRNRCQQCRFKKCLSVGMSRDAVRFGRIPKREKQRMLIEMQSAMKTMMNSQFSGHLQNDTLVEHHEQTALPAQEQLRPKPQLEQENIKSSSPPSSDFAKEEVIGMVTRAHKDTFMYNQEQQENSAESMQPQRGERIPKNMEQYNLNHDHCGNGLSSHFPCSESQQHLNGQFKGRNIMHYPNGHAICIANGHCMNFSNAYTQRVCDRVPIDGFSQNENKNSYLCNTGGRMHLVCPMSKSPYVDPHKSGHEIWEEFSMSFTPAVKEVVEFAKRIPGFRDLSQHDQVNLLKAGTFEVLMVRFASLFDAKERTVTFLSGKKYSVDDLHSMGAGDLLNSMFEFSEKLNALQLSDEEMSLFTAVVLVSADRSGIENVNSVEALQETLIRALRTLIMKNHPNEASIFTKLLLKLPDLRSLNNMHSEELLAFKVHP
B4: RARg: Retinoic acid receptor γ (NR1B3), nuclear hormone receptor cDNA driver (protein, UniProt P13631 1-454, looked up)
Retinoic acid receptor gamma: MATNKERLFAAGALGPGSGYPGAGFPFAFPGALRGSPPFEMLSPSFRGLGQPDLPKEMASLSVETQSTSSEEMVPSSPSPPPPPRVYKPCFVCNDKSSGYHYGVSSCEGCKGFFRRSIQKNMVYTCHRDKNCIINKVTRNRCQYCRLQKCFEVGMSKEAVRNDRNKKKKEVKEEGSPDSYELSPQLEELITKVSKAHQETFPSLCQLGKYTTNSSADHRVQLDLGLWDKFSELATKCIIKIVEFAKRLPGFTGLSIADQITLLKAACLDILMLRICTRYTPEQDTMTFSDGLTLNRTQMHNAGFGPLTDLVFAFAGQLLPLEMDDTETGLLSAICLICGDRMDLEEPEKVDKLQEPLLEALRLYARRRRPSQPYMFPRMLMKITDLRGISTKGAERAITLKMEIPGPMPPLIREMLENPEMFEDDSSQPGPHPNASSEDEVPGGQGKGGLKSPA
B5: RARa: Retinoic acid receptor α (NR1B1), nuclear hormone receptor cDNA driver (protein, UniProt P10276 1-462, looked up)
Retinoic acid receptor alpha: MASNSSSCPTPGGGHLNGYPVPPYAFFFPPMLGGLSPPGALTTLQHQLPVSGYSTPSPATIETQSSSSEEIVPSPPSPPPLPRIYKPCFVCQDKSSGYHYGVSACEGCKGFFRRSIQKNMVYTCHRDKNCIINKVTRNRCQYCRLQKCFEVGMSKESVRNDRNKKKKEVPKPECSESYTLTPEVGELIEKVRKAHQETFPALCQLGKYTTNNSSEQRVSLDIDLWDKFSELSTKCIIKTVEFAKQLPGFTTLTIADQITLLKAACLDILILRICTRYTPEQDTMTFSDGLTLNRTQMHNAGFGPLTDLVFAFANQLLPLEMDDAETGLLSAICLICGDRQDLEQPDRVDMLQEPLLEALKVYVRKRRPSRPHMFPKMLMKITDLRSISAKGAERVITLKMEIPGSMPPLIQEMLENSEGLDTLSGQPGGGGRDGGGLAPPPGSCSPSLSPSSNRSSPATHSP

Assays:
mNPY promoter = experiment: NHR-promoter luciferase screen, mNPY promoter; type: cell-based, mouse; details: for Results of assays of transcription factor (+/- ligand) with mNPY: Table 6d, luciferase activity relative to control (control = 1.00); for Luc. act., normalized to lacZ / Normalized Luc. act., normalized to control: mNPY promoter, HR component with or without ligand; for Normalized Luc. act., normalized to control: relative to control
Outline: (§1)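 CV-1 cells were co-transfected with 50 ng NHR (homodimer or NHR/RXR heterodimer), 100 ng promoter-luciferase construct and 50 ng LacZ. Luciferase was normalized to LacZ and to a no-NHR/no-ligand control.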

hMyoD promoter = experiment: NHR-promoter luciferase screen, hMyoD promoter; type: cell-based, human; details: for Luc. act., normalized to lacZ / Normalized Luc. act., normalized to control: MyoD promoter reporter, co-transfected HR, without or with its ligand; for Normalized Luc. act., normalized to control: relative to control; for luciferase activity normalized to lacZ activity and to a control, hMyoD: hMyoD promoter-luciferase, CV-1 cells, NHR +/- ligand, control = 1.00
Outline: as §1

mABCA1 promoter = experiment: NHR-promoter luciferase screen, mABCA1 promoter; type: cell-based, mouse; details: for Luc. act., normalized to lacZ / Normalized Luc. act., normalized to control: ABCA1 promoter, hormone receptor with or without its ligand; for Normalized Luc. act., normalized to control: relative to control; for mABCA1 promoter reporter activity: transcription factor +/- ligand, control = 1.00
Outline: as §1

mUCP3 promoter = experiment: NHR-promoter luciferase screen, mUCP3 promoter; type: cell-based, mouse; details: for Normalized Luc. act., normalized to control / Luc. act., normalized to lacZ: mUCP3 promoter reporter; for Normalized Luc. act., normalized to control: HR without or with its ligand, relative to control; for Luc. act., normalized to lacZ: hormone receptor (HR) without or with its ligand; for mUCP3 promoter reporter activity: transcription factor +/- ligand, control = 1.00
Outline: as §1

mDio2 promoter = experiment: NHR-promoter luciferase screen, mDio2 promoter; type: cell-based, mouse; details: for Luc. act., normalized to lacZ / Normalized Luc. act., normalized to control: Dio2, HR component without or with its ligand; for mDio2 promoter reporter activity: transcription factor +/- ligand, control = 1.00
Outline: as §1

hCAR promoter = experiment: NHR-promoter luciferase screen, hCAR promoter; type: cell-based, human; details: for luciferase activity normalized to lacZ activity and to a control, hCAR: hCAR promoter-luciferase, CV-1 cells, NHR +/- ligand, control = 1.00; for Luc. act., normalized to lacZ / Normalized Luc. act., normalized to control: hCAR promoter, HR/ligand component
Outline: as §1

Molecule	Results of assays of transcription factor (+/- ligand) with mNPY (mNPY promoter)	Luc. act., normalized to lacZ (mNPY promoter)	Normalized Luc. act., normalized to control (mNPY promoter)	Luc. act., normalized to lacZ (hMyoD promoter)	Normalized Luc. act., normalized to control (hMyoD promoter)	luciferase activity normalized to lacZ activity and to a control, hMyoD (hMyoD promoter)	Luc. act., normalized to lacZ (mABCA1 promoter)	Normalized Luc. act., normalized to control (mABCA1 promoter)	mABCA1 promoter reporter activity (mABCA1 promoter)	Normalized Luc. act., normalized to control (mUCP3 promoter)	Luc. act., normalized to lacZ (mUCP3 promoter)	mUCP3 promoter reporter activity (mUCP3 promoter)	Luc. act., normalized to lacZ (mDio2 promoter)	Normalized Luc. act., normalized to control (mDio2 promoter)	mDio2 promoter reporter activity (mDio2 promoter)	luciferase activity normalized to lacZ activity and to a control, hCAR (hCAR promoter)	Luc. act., normalized to lacZ (hCAR promoter)	Normalized Luc. act., normalized to control (hCAR promoter)
B1	0.70	58.5	0.7	59.6	0.9	0.94	13.8	2.5	2.46	1.7	1.1	1.69	19.1	1.2	1.21	1.22	38.6	1.2
B2	1.17	97.9	1.2	123.5	1.9	1.95	36.8	6.6	6.55	2.1	1.4	2.08	32.7	2.1	2.08	1.31	41.4	1.3
B3	1.67	140.6	1.7	80.9	1.3	1.28	36.8	6.6	6.55	1.9	1.3	1.91	19.7	1.3	1.26	1.13	35.7	1.1
B4	1.20	100.5	1.2	104.5	1.6	1.65	26.4	4.7	4.69	2.0	1.3	1.98	35.2	2.2	2.24	0.99	31.4	1.0
B5	1.24	103.8	1.2	99.3	1.6	1.57	24.6	4.4	4.39	1.8	1.2	1.76	40.3	2.6	2.56	1.05	33.2	1.1
